Assay results from the supplement of paper PMC9112550, “Optimization of the antimicrobial peptide Bac7 by deep mutational scanning” (BMC Biology, 2022).

System: Escherichia coli TOP10
Test: shrunken log2 fold change of peptide-encoding DNA abundance (4.5 h post-induction vs induction); higher = less antimicrobial activity (less host growth inhibition)
Details: time post-induction: 4.5 h; library: site-saturation at positions 5, 18, 19, 20
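Note: peptides expressed intracellularly from a pBAD plasmid library in pooled LB shake-flask culture, induced with 0.3% L-arabinose, DNA abundance read by NGS, three biological replicates, DESeq2 with apeglm shrinkage.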

| Sequence | shrunken log2 fold change |
| --- | --- |
| RRIRARPPRLPRPRPRPYWHPRP | -0.241 |
| RRIRNRPPRLPRPRPRPRFIPRP | -0.533 |
| RRIRVRPPRLPRPRPRPRFLPRP | -0.247 |
| RRIRPRPPRLPRPRPRPKEFPRP | -0.0187 |
| RRIRKRPPRLPRPRPRPMVSPRP | 0.0111 |
| RRIRGRPPRLPRPRPRPDIQPRP | 1.9 |
| RRIRVRPPRLPRPRPRPPHKPRP | 0.274 |
| RRIRDRPPRLPRPRPRPPVCPRP | 0.452 |
| RRIRHRPPRLPRPRPRPVILPRP | -1.12 |
| RRIRIRPPRLPRPRPRPMWAPRP | -0.0316 |
| RRIRVRPPRLPRPRPRPGRDPRP | 0.175 |
| RRIRVRPPRLPRPRPRPALMPRP | 0.193 |
| RRIRTRPPRLPRPRPRPHVPPRP | -0.374 |
| RRIRHRPPRLPRPRPRPYWMPRP | -1.63 |
| RRIRERPPRLPRPRPRPMSEPRP | 0.0552 |
| RRIRKRPPRLPRPRPRPEDVPRP | -0.04 |
| RRIRARPPRLPRPRPRPMNHPRP | -0.151 |
| RRIRRRPPRLPRPRPRPKTSPRP | 2.22 |
| RRIRCRPPRLPRPRPRPFQLPRP | -1.02 |
| RRIRFRPPRLPRPRPRPCWFPRP | -0.509 |
| RRIRQRPPRLPRPRPRPYFDPRP | -0.202 |
| RRIRDRPPRLPRPRPRPEGCPRP | 0.0171 |
| RRIRLRPPRLPRPRPRPMFCPRP | -0.752 |
| RRIRERPPRLPRPRPRPFWLPRP | 0.463 |
| RRIRARPPRLPRPRPRPLSEPRP | 0.172 |

| Sequence | shrunken log2 fold change |
| --- | --- |
| RRIRPRPPRLPRPRPRPDMFPRP | 2.58 |
| RRIRMRPPRLPRPRPRPDSMPRP | 0.025 |
| RRIRIRPPRLPRPRPRPLQEPRP | -0.0919 |
| RRIRRRPPRLPRPRPRPYGPPRP | -0.64 |
| RRIRYRPPRLPRPRPRPVRFPRP | -0.0685 |
| RRIRLRPPRLPRPRPRPKWHPRP | -0.207 |
| RRIRPRPPRLPRPRPRPMKNPRP | 0.212 |
| RRIRIRPPRLPRPRPRPLEGPRP | -0.0524 |
| RRIRGRPPRLPRPRPRPFNQPRP | -0.28 |
| RRIRYRPPRLPRPRPRPKSEPRP | -0.0489 |
| RRIRQRPPRLPRPRPRPVDLPRP | -0.0892 |
| RRIRERPPRLPRPRPRPGLCPRP | 0.00687 |
| RRIRQRPPRLPRPRPRPFWAPRP | 0.289 |
| RRIRPRPPRLPRPRPRPVKHPRP | -0.0566 |
| RRIRKRPPRLPRPRPRPKRLPRP | 0.0257 |
| RRIRLRPPRLPRPRPRPNTPPRP | -0.187 |
| RRIRKRPPRLPRPRPRPNQGPRP | 0.079 |
| RRIRLRPPRLPRPRPRPCGGPRP | 0.091 |
| RRIRDRPPRLPRPRPRPRRTPRP | 0.186 |
| RRIRDRPPRLPRPRPRPGWTPRP | 0.379 |
| RRIRGRPPRLPRPRPRPQTPPRP | 1.36 |
| RRIRMRPPRLPRPRPRPMQCPRP | -0.0018 |
| RRIRRRPPRLPRPRPRPTMKPRP | 0.286 |
| RRIRMRPPRLPRPRPRPGNTPRP | -0.246 |
| RRIRTRPPRLPRPRPRPMQNPRP | -0.0815 |

| Sequence | shrunken log2 fold change |
| --- | --- |
| RRIRHRPPRLPRPRPRPIPAPRP | 0.32 |
| RRIRHRPPRLPRPRPRPCYTPRP | 0.0618 |
| RRIRHRPPRLPRPRPRPQQQPRP | -0.158 |
| RRIRPRPPRLPRPRPRPWWLPRP | -0.0379 |
| RRIRRRPPRLPRPRPRPWMGPRP | -0.127 |
| RRIRDRPPRLPRPRPRPPYQPRP | 0.251 |
| RRIRVRPPRLPRPRPRPGIMPRP | -0.000355 |
| RRIRPRPPRLPRPRPRPSQDPRP | -0.334 |
| RRIRKRPPRLPRPRPRPLGHPRP | 0.166 |
| RRIRLRPPRLPRPRPRPGITPRP | -0.322 |
| RRIRKRPPRLPRPRPRPSNFPRP | -0.198 |
| RRIRWRPPRLPRPRPRPLAEPRP | 1.13 |
| RRIRDRPPRLPRPRPRPQAVPRP | 0.164 |
| RRIRHRPPRLPRPRPRPEQIPRP | 0.0219 |
| RRIRVRPPRLPRPRPRPCFHPRP | -0.395 |
| RRIRFRPPRLPRPRPRPQQVPRP | 0.0179 |
| RRIRSRPPRLPRPRPRPGLCPRP | 0.238 |
| RRIRMRPPRLPRPRPRPTGKPRP | 0.562 |
| RRIRHRPPRLPRPRPRPCFDPRP | -0.00612 |
| RRIRLRPPRLPRPRPRPWYHPRP | 0.112 |
| RRIRHRPPRLPRPRPRPEHKPRP | 0.000824 |
| RRIRVRPPRLPRPRPRPIGKPRP | -0.129 |
| RRIRWRPPRLPRPRPRPVPWPRP | 0.374 |
| RRIRKRPPRLPRPRPRPGILPRP | 0.28 |
| RRIRRRPPRLPRPRPRPEKTPRP | 0.00726 |

| Sequence | shrunken log2 fold change |
| --- | --- |
| RRIRHRPPRLPRPRPRPHRIPRP | -0.0803 |
| RRIRQRPPRLPRPRPRPKRVPRP | -0.154 |
| RRIRQRPPRLPRPRPRPTHSPRP | 0.415 |
| RRIRGRPPRLPRPRPRPRWQPRP | 0.994 |
| RRIRWRPPRLPRPRPRPWRAPRP | 0.223 |
| RRIRNRPPRLPRPRPRPRNSPRP | -0.0392 |
| RRIRHRPPRLPRPRPRPGWYPRP | -0.018 |
| RRIRARPPRLPRPRPRPMPQPRP | 0.378 |
| RRIRFRPPRLPRPRPRPEIPPRP | 0.163 |
| RRIRCRPPRLPRPRPRPKHPPRP | -0.0559 |
| RRIRVRPPRLPRPRPRPCHIPRP | -0.312 |
| RRIRVRPPRLPRPRPRPCACPRP | 0.0537 |
| RRIRHRPPRLPRPRPRPYSHPRP | -0.129 |
| RRIRPRPPRLPRPRPRPYHTPRP | -1.66 |
| RRIRWRPPRLPRPRPRPALHPRP | 0.277 |
| RRIRCRPPRLPRPRPRPVDHPRP | -0.148 |
| RRIRKRPPRLPRPRPRPHFLPRP | 0.12 |
| RRIRWRPPRLPRPRPRPNMVPRP | -0.0148 |
| RRIRRRPPRLPRPRPRPWTFPRP | -0.103 |
| RRIRARPPRLPRPRPRPNTDPRP | -0.127 |
| RRIRMRPPRLPRPRPRPAVMPRP | 0.782 |
| RRIRRRPPRLPRPRPRPCYIPRP | -0.205 |
| RRIRFRPPRLPRPRPRPHDQPRP | 0.0225 |
| RRIRFRPPRLPRPRPRPKVKPRP | 0.0668 |
| RRIRPRPPRLPRPRPRPIIIPRP | -0.593 |

| Sequence | shrunken log2 fold change |
| --- | --- |
| RRIRSRPPRLPRPRPRPIKRPRP | 0.0449 |
| RRIRARPPRLPRPRPRPRIHPRP | -0.145 |
| RRIRIRPPRLPRPRPRPHDSPRP | -0.398 |
| RRIRTRPPRLPRPRPRPKVNPRP | -0.168 |
| RRIRVRPPRLPRPRPRPVPHPRP | 0.135 |
| RRIRTRPPRLPRPRPRPDWCPRP | -0.0271 |
| RRIRERPPRLPRPRPRPTYLPRP | -0.178 |
| RRIRKRPPRLPRPRPRPGCDPRP | 0.826 |
| RRIRWRPPRLPRPRPRPRVSPRP | 0.158 |
| RRIRYRPPRLPRPRPRPEKTPRP | 0.0635 |
| RRIRMRPPRLPRPRPRPRKQPRP | 0.938 |
| RRIRDRPPRLPRPRPRPMYDPRP | -0.208 |
| RRIRNRPPRLPRPRPRPDLIPRP | -0.172 |
| RRIRTRPPRLPRPRPRPEGCPRP | 0.214 |
| RRIRVRPPRLPRPRPRPQDVPRP | -0.033 |
| RRIRERPPRLPRPRPRPINTPRP | -0.351 |
| RRIRARPPRLPRPRPRPQGGPRP | 0.499 |
| RRIRKRPPRLPRPRPRPHSEPRP | -0.0169 |
| RRIRNRPPRLPRPRPRPNGSPRP | -0.0999 |
| RRIRLRPPRLPRPRPRPPGTPRP | 0.448 |
| RRIRCRPPRLPRPRPRPFDYPRP | 0.0472 |
| RRIRSRPPRLPRPRPRPGQEPRP | -0.0151 |
| RRIRNRPPRLPRPRPRPFFAPRP | 0.201 |
| RRIRMRPPRLPRPRPRPECDPRP | 2.82 |
| RRIRHRPPRLPRPRPRPDSFPRP | -0.477 |

| Sequence | shrunken log2 fold change |
| --- | --- |
| RRIRMRPPRLPRPRPRPAEWPRP | 0.375 |
| RRIRRRPPRLPRPRPRPQGHPRP | 0.071 |
| RRIRRRPPRLPRPRPRPCPNPRP | -0.207 |
| RRIRDRPPRLPRPRPRPTISPRP | -0.0421 |
| RRIRMRPPRLPRPRPRPFDRPRP | 0.00911 |
| RRIRQRPPRLPRPRPRPIYLPRP | -0.163 |
| RRIRDRPPRLPRPRPRPENDPRP | 0.41 |
| RRIRVRPPRLPRPRPRPKPSPRP | 0.313 |
| RRIRWRPPRLPRPRPRPGWQPRP | 0.0857 |
| RRIRNRPPRLPRPRPRPVSGPRP | 0.172 |
| RRIRLRPPRLPRPRPRPIRSPRP | -0.0199 |
| RRIRVRPPRLPRPRPRPCTCPRP | -0.00748 |
| RRIRFRPPRLPRPRPRPQCKPRP | -0.422 |
| RRIRNRPPRLPRPRPRPAILPRP | -0.101 |
| RRIRIRPPRLPRPRPRPEHHPRP | -0.206 |
| RRIRDRPPRLPRPRPRPTHIPRP | -0.656 |
| RRIRNRPPRLPRPRPRPYWDPRP | -0.54 |
| RRIRNRPPRLPRPRPRPSRLPRP | 0.14 |
| RRIRTRPPRLPRPRPRPANSPRP | -0.119 |
| RRIRARPPRLPRPRPRPFKCPRP | -0.0202 |
| RRIRYRPPRLPRPRPRPISCPRP | -0.202 |
| RRIRNRPPRLPRPRPRPAPAPRP | 0.959 |
| RRIRERPPRLPRPRPRPKICPRP | 0.0135 |
| RRIRWRPPRLPRPRPRPLWQPRP | 0.156 |
| RRIRDRPPRLPRPRPRPCMTPRP | 0.33 |
